From patent US20240124539A1, “CROSSLINKED HELIX DIMER MIMICS OF SOS AND METHODS OF USING SAME” (NEW YORK UNIVERSITY, priority 2020, published 2024)
One block for each binder: values may come before it. Positions of bridges follow the written chain, without caps; N, C: chain ends. Non-standard residues stand in square brackets, D forms with d. Chains are numbered I, II in the order given. No end group written: not given here. *: point of attachment. dibenzylether crosslinker = scaffold alkylating both cysteine thiols (drawn in Scheme 1 and; FITC = O=C1OC2(c3ccc(O)cc3Oc3cc(O)ccc32)c2ccc(NC(=S)*)cc21; hArg = N=C(N)NCCCC[C@H](N)C(=O)O; βAla = NCCC(=O)O

Experiments:
[1] = target: T1, wild-type His6-tagged H-Ras (1-166) pre-loaded with GDP, P01112; experiment: direct fluorescence polarization; fluorescein-labelled CHD titrated with GDP-loaded WT H-Ras
[2] = target: T1, wild-type His6-tagged H-Ras (1-166) …; experiment: fluorescence polarization, fluorescein-labelled CHD (15 nM), His6-H-Ras-GDP titrated
[3] = target: T2, G12V mutant His6-tagged H-Ras (1-166) pre-loaded with GDP, P01112; experiment: direct fluorescence polarization (FP); fluorescein-labelled CHD titrated with GDP-loaded His6-H-Ras G12V
[4] = target: G12C mutant His6-tagged H-Ras (1-166) pre-loaded with GDP, P01112; experiment: direct fluorescence polarization (FP); fluorescein-labelled CHD titrated with GDP-loaded His6-H-Ras G12C
[5] = target: T1, wild-type His6-tagged H-Ras (1-166) …; experiment: direct fluorescence polarization (FP); fluorescein-labelled CHD titrated with GDP-loaded His6-H-Ras
[6] = target: G12D mutant His6-tagged H-Ras (1-166) pre-loaded with GDP, P01112; experiment: direct fluorescence polarization (FP); fluorescein-labelled CHD titrated with GDP-loaded His6-H-Ras G12D
[7] = target: KRAS (Homo sapiens), P01116; experiment: photoaffinity crosslinking in H358 cells, TMT MS proteomics; vs control probe CP-266
[8] = target: KRAS (Homo sapiens), P01116; experiment: photoaffinity crosslinking in H358 cells, TMT MS proteomics
[9] = target: T2, G12V mutant His6-tagged H-Ras (1-166) …; experiment: microscale thermophoresis (column MST); AFDye 647-labelled G12V H-Ras-GDP with serial dilutions of the unlabelled CHD
[10] = target: K-Ras (endogenous, H358 cells) (human), P01116; experiment: cell-based or functional assay
[11] = target: T3, fluorescently-labeled wild-type H-Ras-GDP (MST), P01112; experiment: microscale thermophoresis, dye-labelled H-Ras-GDP (5-10 nM), CHD titrated
[12] = target: T3, fluorescently-labeled wild-type …; experiment: microscale thermophoresis; AFDye 647-labelled wild-type H-Ras-GDP with serial dilutions of the CHD

Kd [1]: 32.2 µM | Kd [2]: 32 µM
B1: FITC-CHD^Sos-1 (designed binder)
chain 1: Ac-FIGRLCTEILKLREGN-NH2
chain 2: {FITC}-[βAla]LAWRLRELERELARLC
modifications: linker I:6-II:17 via dibenzylether crosslinker; not fully specified (C-terminus)

Kd [3]: 13.4 µM | Kd [4]: 16.1 µM | Kd [5]: 1.9 µM | Kd [6]: 17.9 µM | Kd [2]: 2 µM
B2: FITC-CHD^Sos-5 (designed binder)
chain 1: Ac-WIGRLCTEI[hArg]RLRNGN-NH2
chain 2: {FITC}-[βAla]LAWRLRELERELARLC-NH2
modifications: linker I:6-II:17 via dibenzylether crosslinker

Fold [7]: 6.63 fold | log2(fold) [7]: 2.73 | Average Abundance [8]: 825
B3: DZ2-CHD^Sos-5 (designed binder)
chain 1: WIGRLCTEIKRLRNGN
chain 2: LAWRLRELERELARLC
modifications: not checked

Kd [9]: 2.7 µM | ERK activation levels (ERK phosphorylation, Western blot, H358 cells) [10]: < 1 µM | Kd [11]: 0.3 µM | EC50 (read off the curve) [12]: 0.2 µM
B4: CHD^Sos-5 (designed binder)
chain 1: WIGRLCTEI[hArg]RLRNGN
chain 2: Ac-LAWRLRELERELARLC-NH2
modifications: linker I:6-II:16 via dibenzylether crosslinker; not fully specified (N-terminus, C-terminus)
